From the supplement of paper PMC9170038

Test system: MS2 coat protein
Assay: apparent KD of MS2 coat protein; higher = weaker reporter binding
Settings: Eterna round: R107
Procedure, shortened: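 Values are apparent KD, taken as the median for each design of fits to normalised binding curves from individual clusters. The designed RNA switches were transcribed on-chip from Illumina sequencing clusters and exposed to SNAP-549-labelled MS2 coat protein at twofold increasing amounts from 0.7 or 1.5 nM to 3 µM. Titration used 100 mM Tris-HCl pH 7.5, 80 mM KCl and 4 mM MgCl2, without or with constant ligand.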

[1] = input ligand: theophylline 20 uM
[2] = input ligand: theophylline 2 mM
[3] = input ligand: tryptophan 2.4 mM

| Sequence | apparent KD of MS2 coat protein (input ligand: arginine 13.2 mM) [nM] | apparent KD of MS2 coat protein (input ligand: none) [nM] | apparent KD of MS2 coat protein [1] [nM] | apparent KD of MS2 coat protein [2] [nM] | apparent KD of MS2 coat protein [3] [nM] |
| --- | --- | --- | --- | --- | --- |
| UGGGUUGGACCAGGAAAUGGUCUGACGCACCGAGGACCGGUACGGCCGCCACUCGGCCGUACAUGAGGAUCACCCAUGUCGGUGU [#1 Same State - Tryptophan A Attempt #13 (HarryS)] | 107 | 376 | 486 | 1170 | 740 |
| UAUUAUCAGUCGGCCGCCACUGUCACAUGAGGAUCACCCAUGUAACUUGGGUUAUAUUUAAUAUACAGGACCGGGACAAAGGCUA [JR_ExcTryptoB_Sub012] | 61.5 |  | 76.6 | 66.8 |  |
| GGCUGUCAUAGGAGGUGAAAUAUACUCGAAGGAGCGUCAUAGUAGGCAGGUAGGUCGCGAGACAUGAGGAUCACCCAUGUAGAGA [yyumullin] | 38.9 | 53.9 | 162 | 67.7 | 56.4 |
| CUAUAAGUACCGGUCCUCAGAUCCUCAUGACGAGGACCGGUACGGCCGCCACUCGAAACAUGAGGAUCACCCAUGUAAUAACAUU [Brourdmod22] | 18.5 |  | 30.1 | 24.9 |  |
| AAGAAGUUUUGAUUUUUAUGAAGUAGUGAUACCAGUUAAGAAAGAGACCCUUGGCAGCGCAACAUGAGGAUCACCCAUGUAAGAA [Another radom design] | 18.9 | 17.3 | 21.1 | 19.7 | 21.9 |
| GCUUGGGUGGCACGGCCCUGGCGGUGCGAUACCAGCACGGUAACGUGCCCUUGGCAGCGCACAUGAGGAUCACCCAUGUGGUGCG [#1 Exclusion - Theophylline A Attempt #24 (HarryS)] | 13.1 | 15.6 | 21.9 | 185 | 13.7 |
| GGUCUCUGGAGCGAUACCAGCUUGAUCGUACUAGCCUGGUACAUGAGGAUCACCCAUGUAAGCCCUUGGCAGCGCUCCAGAGACC [#1 Exclusion - Theophylline B Attempt #8 (HarryS)] | 11.8 | 12.7 | 15.8 | 21.4 | 12.1 |
| UGUAUGUGAUUUGAUACCAGACCAGCUGGUGGUACAUGAGGAUCACCCAUGUAGGUUUGGGUCCCUUGGCAGCAAAUCGCAUACU [SSTheo B #24] | 54.6 |  | 64.5 |  | 44 |
| GAGCACAUGAGGAUCACCCAUGUUGGCACACGAGGACCGGUACGGCCGCCACUCGCGGCGGGAAUAACUUUGCGCAGAUGAUGGG [theeternabot_sameState_MS2_Trp_A_50] | 27.5 | 23.9 | 37.5 | 23.7 | 21.4 |
| AGCCCAUUACAUGAGGAUCACCCAUGUGAUACCAGUCAGGAAACUGACCCUUGGCAGCGCAUGAGGAUCACCCAUGCGCUGGGCA [Omei Theo A Exc A v6] | 10 |  | 11.7 |  | 12.2 |
| UAUCGUCAGACGGCCGCCACUAGAACAUGAGGAUCACCCAUGUACGGCCGCUCGGUCCUCAUGACUAGGACCGGGUCUGACGAAU [(Trp1)-(Ms2)-(T)'-(M)'-(Trp2)_Design22] | 10.8 | 7.31 | 16.9 | 12 | 9.96 |
| GAGAGUGUGUGCGAAAGCACAGAUCUGGAAGGAGCGUAGAAAGAUACAGGUAGGUCGCCGGGACAUGAGGAUCACCCAUGUGUAU [ArgiA-ms2@63] | 38.9 | 37.7 | 52.6 | 35.8 | 34.2 |
| AGCGUGCAUAGGAAAACUAUGUACGCAAAUCGAGGACCGGUACGGCCGCCACUCGUCCUCAACAUGAGGAUCACCCAUGUAAUAA [Mat - Exclusion - Trytophan A - D9] | 18.9 |  | 26.7 | 22.5 |  |
| GAAUCUACAAACGAUACCAGAUCCGGCUGCCACAUGAGGAUCACCCAUGUCUAGCGACUCAUCCCUUGGCAGCGUGUGCAUCCCG [theeternabot_sameState_MS2_Theo_B_37] | 147 |  | 612 |  | 629 |
| UGUACCUAGUCGGCCGCCACUCCAAAAGGAGAGGAUCACCCUCCUAAACGAGUCAAAGACUCGAGGAGGACCGGGACUAGGUACU [Palindromic MS2 #AlternativeMS2 #Palindrome #StaticStem] | 30 | 30.4 | 41.8 | 33.9 | 14 |
| GACCUUGCGGGCGCCCGCAAGGUCGCGGAUACCAGCGAGGUCCAUCGCCCUUGGCAGCCGAACAUGAGGAUCACCCAUGUCGGUU [Same State - Theophylline A Attempt #5 (HarryS)] | 8.39 |  | 12.8 |  | 11 |
| GGACUAACUGGAAGGAGCGACACGCAGAAACUGCAAUUUCCUCCACACGAGGAUCACCCGUGUCAGGUAGGUCGCCAGUUAGUCG [ArgBX 29] | 31.3 | 39.1 | 52 | 57 | 40.9 |
| AACCAUCUCGGCGAUACCAGUGCCUACGAGUACAUGAGGAUCACCCAUGUAGGUGACCGACACCCUUGGCAGCGCGAUUGAGUCA [theeternabot_sameState_MS2_Theo_B_45] | 70.9 |  | 184 |  | 129 |
| CGCCGCGGGAGAAGGAGCGCGAUAACAUAACAUGAGGAUCACCCAUGUAAGAAAUUAAUCAUGCAGGUAGGUCGCUCCCGCGGCG [Same State Arginine B GF 4] | 16.3 | 19.5 | 26.5 | 23.3 | 22.5 |

| Sequence | apparent KD of MS2 coat protein (input ligand: arginine 13.2 mM) [nM] | apparent KD of MS2 coat protein (input ligand: none) [nM] | apparent KD of MS2 coat protein [1] [nM] | apparent KD of MS2 coat protein [2] [nM] | apparent KD of MS2 coat protein [3] [nM] |
| --- | --- | --- | --- | --- | --- |
| GUGGGUUUGCGAAGGAGCGGGUAUGUUUUCUACUGGAUCCUAACAUGAGGAUCACCCAUGUCCCAGGUAGGUCGCGCGGGCUUGG [12.Z] | 49.7 | 215 | 81.9 | 209 | 56.8 |
| UGGUAUGUAGGAAGGAGCGCAUACUUCACAUGAGGAUCACCCAUGUCGAGACGUGAGUCAGUGCAGGUAGGUCGCCUAGUUAUGA [Same State - Arginine B (Freestyle 22)] | 35.8 | 43 | 33.4 | 28.1 | 29 |
| AUAACAUGAGGAUCACCCAUGUAAGCAGAUACCAGCUAGGAAACUAGCCCUUGGCAGCUGCAAGGUGAUCCUGCUGCCAAGGUAU [(M1)-(M2)-(T1)-(T2)-(M)'-(T)'_Design7] | 117 | 233 | 187 | 130 | 209 |
| UGUAUGGACUGAAGGAGCGCCUCAAAAUAACAUGAGGAUCACCCAUGUAAGGCGAAAGCCGGGCAGGUAGGUCGCAGUCCAUACU [ArgBX 3 #StaticStem #MS2Late] | 15.8 | 11.2 | 16.1 | 17 | 12.7 |
| ACAUGAGGAUCACCCAUGUUGAGCACAGAAGGAGCGUGAUUAAGCACAGGUAGGUCGCUGUACUUAUCGAGCGUUAGCUCGAUAC [JR_Nu_SSArginiA_Sub030] | 21 | 22.3 | 32.6 | 28.3 | 22.8 |
| ACGAUAGGACAUGAGGAUCACCCAUGUGAUACCAGCCUGGAAACAGGCCCUUGGCAGCACAAAUACUCCAGAAACCUAUCGAAUA [TheoAX2 #MicroSwitchBubble] | 124 |  | 294 |  | 273 |
| GGGUGGUAGGCGGCCGCCACUGAUUUUCAUUUAUAGAUGACAUGAGGAUCACCCAUGUUUAUGUGCAGGACCGGGCCUGCUGUGG [aaaT] | 102 | 68 | 130 | 137 | 78.2 |
| UCGCCCGGGUCGGCCGCCACUGAGGUGAUAUGACAUGAGGAUCACCCAUGUUGUCAUGUGGAACAUAGGACCGGGACCCGGGCGA [Exclusion - Tryptophan B Attempt #2 (HarryS)] | 15.7 | 18.5 | 47.6 | 19.6 | 17.8 |
| CCUCGAUUUUGAUACCGAUAUGUCUUUGAUACCAGCGCCAUAGUACGCCCUUGGCAGCAAGAAACAUGAGGAUCACCCAUGUUAA [theeternabot_exclusion_MS2_Theo_A_36] | 16.9 |  | 26.4 |  | 16.7 |
| GGAUGAAACUGAAGGAGCGAGAUCACAAGAUUGGGUCUAACAUGAGGAUCACCCAUGUAAUCUCAGGUAGGUCGCAGUGUCCCUU [Exclusion Arginine B GF 12] | 33 | 26.6 | 42 | 43.5 | 31.6 |
| ACAUUAGUUGGCGAUACCAGCUAUAGGCCUUCUGGGCGACAUGAGGAUCACCCAUGUGAUGGCCCUUGGCAGCGCUGAUUGAUGU [SSTheo B #29] | 65.6 |  | 167 |  | 182 |
| AGCAUCUAGUCGGCCGCCACUCUUAUUACAUGAGGAUCACCCAUGUUUAAUUCAUGGUUAUAUUUGAGGACCGGGACAUUUGCAU [JR_ExcTryptoB_Sub007] | 39.7 |  | 70.2 | 74.9 |  |
| AAGAGUUGACAAAAGUCAGCUCAAACCGAAGGAGCGGGAGAAAUCCCAGGUAGGUCGCGGUUACAUGAGGAUCACCCAUGUUCCU [ArgAS 6 #BothOrNeither #OpenEnded] | 68.1 | 355 | 376 | 300 | 273 |
| CCUCGUGCAACAUGAGGAUCACCCAUGUACCGAGGACCGGUACGGCCGCCACUCGAAAACGAGUACCAUUAGCGAAAGCUGAUGG [Trp A SS mod1] | 11.9 | 13.1 | 16.4 | 14.2 | 14.1 |
| UUUAACGGGCACGAUACCAGCGACAUGAGGAUCACCCAUGUAAACGCGGUGACGGUCUGUUGCCCUUGGCAGCGUGCAAAAUAAU [Zaquarar] | 43 | 67.6 | 157 | 94.3 | 48.5 |
| UUUUAAUGUGCGGAUACCAGCCGUACAUGAGGAUCACCCAUGUCGCUGUUGAGCAUCGUCGGCCCUUGGCAGCUGUGUGUAGUUG [#27 Same State - Theophylline B] | 26.2 | 51.9 | 62.7 | 66 | 42.3 |
| AGAGUUAGACAAAAGUCUAGCUCACCAGAAGGAGCGUCCGAAAGGACAGGUAGGUCGCUGGUGCUUGAGGAUCACCCAAGUUCCU [ArgAS 22 #OpenEnded #AlternativeMS2] | 82.7 | 96.1 | 121 | 204 | 128 |
| GGGCAAGAGGGAAGGAGCGUUAGCUGAGUCACAUGAGGAUCACCCAUGUCGCACGUAGUAUGACAGGUAGGUCGCCCUCUACCCU [SS-ArgB15] | 18 | 18.1 | 22.1 | 21.6 | 18.9 |
| ACAUGAGGAUCACCCAUGUAACGUCUUGAUACCAGACGAGAAGUAGUCCCUUGGCAGCAAAUACGUGAGGGUCACACAUGUGUAA [vvvmullin] | 13.8 |  | 34.4 |  | 22.1 |
